T1: human Fc Receptor-Like 5 (FcRL5), full length, expressed on cells (human, UniProt Q96RD9 16-977)
T1 construct: also called CD307e; IRTA2
T1 sequence: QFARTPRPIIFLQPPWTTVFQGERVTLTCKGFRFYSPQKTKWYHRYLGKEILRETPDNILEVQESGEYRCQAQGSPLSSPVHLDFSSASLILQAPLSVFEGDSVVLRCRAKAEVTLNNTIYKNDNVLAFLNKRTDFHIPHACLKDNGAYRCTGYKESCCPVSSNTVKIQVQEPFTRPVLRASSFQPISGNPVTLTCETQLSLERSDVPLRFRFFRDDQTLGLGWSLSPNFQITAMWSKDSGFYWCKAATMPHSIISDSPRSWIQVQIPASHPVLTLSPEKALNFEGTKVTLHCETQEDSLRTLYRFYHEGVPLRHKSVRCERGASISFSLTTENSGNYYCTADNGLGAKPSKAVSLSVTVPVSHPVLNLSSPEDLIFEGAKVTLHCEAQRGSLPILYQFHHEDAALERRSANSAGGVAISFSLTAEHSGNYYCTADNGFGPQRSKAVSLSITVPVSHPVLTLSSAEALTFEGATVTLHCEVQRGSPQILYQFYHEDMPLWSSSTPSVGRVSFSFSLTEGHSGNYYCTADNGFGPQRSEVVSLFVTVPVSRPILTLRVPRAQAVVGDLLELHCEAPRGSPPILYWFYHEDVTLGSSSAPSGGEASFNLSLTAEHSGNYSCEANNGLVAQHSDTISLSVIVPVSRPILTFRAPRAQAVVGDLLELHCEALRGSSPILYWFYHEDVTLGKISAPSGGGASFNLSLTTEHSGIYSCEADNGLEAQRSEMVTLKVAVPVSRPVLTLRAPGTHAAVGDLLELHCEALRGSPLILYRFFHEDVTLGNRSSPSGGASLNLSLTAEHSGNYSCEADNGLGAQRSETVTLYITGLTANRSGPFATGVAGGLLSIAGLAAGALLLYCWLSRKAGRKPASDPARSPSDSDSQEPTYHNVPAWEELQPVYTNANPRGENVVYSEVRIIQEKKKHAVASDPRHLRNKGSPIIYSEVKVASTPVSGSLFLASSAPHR

B1: ET200-040 scFv (scFv)
scFv: QSVLTQPPSVSGAPGQRVTISCTGSSSNIGAGYDVHWYQQLPGTAPKLLIYGNSNRPSGVPDRFSGSKSGTSASLAITGLQAEDEADYYCQSYDSSLSGYVFGTGTKVTVLGSRGGGGSGGGGSGGGGSLEMAQVQLVQSGAEVKKPGASVKVSCKVSGYTLTELSMHWVRQAPGKGLEWMGGFDPEDGETIYAQKFQGRVTMTEDTSTDTAYMELSSLRSEDTAVYYCARYSGVYYDWGQGTLVTVSS
notes: VL-linker-VH; screened as scFv phage clone
B2: ET200-044 scFv (scFv)
scFv: QSVLTQPPSVSVSPGQTATIACSGHKLGDKYASWYQQKSGQSPVLIIYQDNKRPSGIPERFSGSNSGNTATLTISGTQALDEADYYCQAWDSSTYVAFGGGTKLTVLGSRGGGGSGGGGSGGGGSLEMAQVQLQESGPGLVKPSETLSLTCVVSGGSISSSNWWSWVRQPPGKGLEWIGEIYHSGSPNYNPSLKSRVTISVDKSKNQFSLKLSSVTAADTAVYYCARMTTHTFGYDAWGQGTLVTVSS
notes: as for B1
B3: ET200-038 scFv (scFv)
scFv: QSVLTQPPSVSGAPGQRVTISCTGSSSNIGAGFDVHWYQLLPGTAPKLLIYANSNRPSGVPDRFSGSKSGTSASLAITGLLAEDEADYYCQSYDSSLSGVVFGGGTKLTVLGSRGGGGSGGGGSGGGGSLEMAQVQLVQSGAEVKKPGSSVKVSCKASGGTFSSYAISWVRQAPGQGLEWMGGIIPIFGTANYAQKFQGRVTITADESTSTAYMELSSLRSEDTAVYYCARGASFDRHDNWGQGTLVTVSS
notes: as for B1
B4: ET200-042 scFv (scFv)
scFv: QSVVTQPPSVSGAPGQTVTISCTGGSSNIGTGYFVNWYQQVPGKAPKLLILGNNNRPSGVPDRLSGSTSGTSASLAITGLQAEDEGTYYCQSYDSSLSGYVFGTGTKVTVLGSRGGGGSGGGGSGGGGSLEMAQVQLQQSGPGLVKPSQTLSLTCGISGDSVSTNSVAWHWIRQSPSRGLEWLGRTYYRSKWSNDYGVSVKSRITIIPDTSKNQFSLQLNSVTPEDTAVYYCARSSSWYQIFDYWGQGTLVTVSS
notes: as for B1
B5: ET200-006 scFv (scFv)
scFv: SYVLTQPPSVSVAPGKTARITCGGNNIGSKSVHWYQQKPGQAPVVVIHYDSDRPSGIPERFSGSNSGNTATLTISRVEAGDEADYYCQVWDSSSDHPYVFGTGTKVTVLGSRGGGGSGGGGSGGGGSLEMAEVQLVQSGAEVKKPGASVKVSCKASGYTFTTYGISWVRQAPGQGLEWMGWINTYNGHTNYAQKLQGRATMTADTSTNTAYMELRSLRSDDTAVYYCARVIYGSGDYWGQGTLVTVSS
notes: as for B1
B6: ET200-027 scFv (scFv)
scFv: QSVLTQPPSVSGAPGQGVTIPCTGSSSNIGAGYDVHWYQQLPGTAPKLLIYGNNNRPSGVPDRFSGSRSGSSASLAITGLQAEDEADYYCQSYDSSLSDVVFGGGTKVTVLGSRGGGGSGGGGSGGGGSLEMAEVQLVQSGAEVKKPGATVKISCKVSGYTFTDYYMHWVQQAPGKGLEWMGLVDPEDGETIYAEKFQGRVTITADTSTDTAYMELSSLRSEDTAVYYCARYWSYSFDYLYMPEGNDWWGQGTLVTVSS
notes: as for B1
B7: ET200-034 scFv (scFv)
scFv: QSVLTQPPSVSGAPGQRVTISCTGSTSNIGAGYDVHWYQQLPGTAPKLLINNNRNRPSGVPDRFSGSKSGTSATLGITGLQTGDEADYYCGTWDGSLTGAVFGGGTKLTVLGSRGGGGSGGGGSGGGGSLEMAEVQLVQSGAEVKKPGSSVKVSCKASGGTFSSYAISWVRQAPGQGLEWMGGIIPIFGTANYAQKFQGRVTITADESTSTAYMELSSLRSEDTAVYYCARGSALDHYDRWGQGTLVTVSS
notes: as for B1
B8: ET200-026 scFv (scFv)
scFv: NFMLTQPHSVSESPGKTVTISCTGSSGSIASNYVQWYQQRPGSAPTTVIYEDNQRPSGVPDRFSGSIDSSSNSASLTISGLKTEDEADYYCQSYDSSNWVFGGGTKLTVLGSRGGGGSGGGGSGGGGSLEMAEVQLVQSGAEVKKPGSSVKVSCKASGGTFSSYAISWVRQAPGQGLEWMGGIIPIFGTANYAQKFQGRVTITADESTSTAYMELSSLRSEDTAVYYCARNNHYYNDYWGQGTLVTVSS
notes: as for B1
B9: ET200-035 scFv (scFv)
scFv: NFMLTQPHSVSESPGKTVTISCTRSSGSIASNYVQWYQQRPGSAPTTVIYEDNQRPSGVPDRFSGSIDSSSNSASLTISGLKTEDEADYYCQSYDSTNWVFGGGTKLTVLGSRGGGGSGGGGSGGGGSLEMAQVQLVQSGAEVKKPGSSVKVSCKASGGTFSSYAISWVRQAPGQGLEWMGGIIPIFGTANYAQKFQGRVTITADESTSTAYMELSSLRSEDTAVYYCARYNYYFNDYWGQGTLVTVSS
notes: as for B1
B10: ET200-031 scFv (scFv)
scFv: SYVLTQPPSVSVAPGKTARITCGGNNIGSKSVHWYQQKPGQAPVLVIYYDSDRPSGIPERFSGSNSGNTATLTISRVEAGDEADYYCQVWDSSSDYVFGTGTKVTVLGSRGGGGSGGGGSGGGGSLEMAEVQLVETGGGLVKPGGSLRLSCAASGFTVSDYYMSWIRQAPGKGLEWISYISGSGNSIYYADSVKGRFTISRDNAKNSLDLQMTSLRAEDTAVYYCARSTKFDYWGQGTLVTVSS
notes: VL-linker-VH; screened as scFv phage clone; also called ET200-31
B11: ET200-033 scFv (scFv)
scFv: NFMLTQPHSVSESPGKTVTISCTGSSGSIASNYVQWYQQRPGSAPTTVIYEDNQRPSGVPDRFSGSIDSSSNSASLTISGLKTEDEADYYCQSYDSSNHWVFGGGTKLTVLGSRGGGGSGGGGSGGGGSLEMAQVQLQQWGAGLLKPSETLSLTCAVYGGSFSGYYWSWIRQPPGKGLEWIGEITHSGRSNYNPSLKSRVTISVDTSKNQFSLKLSSVTAADTAVYYCARSSIMSDYWGQGTLVTVSS
notes: as for B1
B12: ET200-030 scFv (scFv)
scFv: QSVVTQPPSVSGAPGQRVTISCTGSSSNIGAGYDVNWYQQFPGTAPKLLIYGNSNRPSGVPDRFSGSKSGTSASLAITGLQAEDEADYYCQSYDSSLSGSYVFGTGTKVTVLGSRGGGGSGGGGSGGGGSLEMAQMQLVQSGAEVKKPGASVKVSCKASGYTLTELSMHWVRQAPGKGLEWMGGFDPEDGETIYAQKFQGRVTMTEDTSTDTAYMELSSLRSEDTAVYYCARMSSMYYDWGQGTLVTVSS
notes: as for B1
B13: ET200-032 scFv (scFv)
scFv: LPVLTQPPSASGTPGQRVTISCSGSSSNVGSYTVNWYRQLPGTAPTLLIYNNNQRPSGVPDRFSDSKSGTSASLTISGLQPEDEADYYCAAWDDRLGGYVFGTGTKVTVLGSRGGGGSGGGGSGGGGSLEMAEVQLVQSGAEVKKPGESLKISCKGSGYSFTNYWIGWVRQMPGKGLEWMGIIYPGDSDTRYSPSFQGQVTISADKSISTAYLQWSSLKASDTAMYYCARSTGSSHMSDEWGQGTLVTVSS
notes: as for B1
B14: ET200-029 scFv (scFv)
scFv: QAVLTQPPSVSVAPGKTARVTCGGNNIGSESVHWYQQKPGQAPVLVIYYDTDRPSGIPERFSGSHSGTTATLTISRVEAGDEADYYCQVWDSSRDHVVFGGGTKLTVLGSRGGGGSGGGGSGGGGSLEMAQVQLVQSGGGVVQPGRSLRLSCAASGFTFSSYAMHWVRQAPGKGLEWVAVISYDGSNKYYADSVKGLFTISRDNSKNTLYLQMNSLRAEDTAVYYCARSYFTSGFYDYWGQGTLVTVSS
notes: as for B1
B15: ET200-028 scFv (scFv)
scFv: QSVLTQPPAASGTPGQRVTISCSGGVSNIGSGALNWYQQLPGTAPKLLIYSYNQRPSGVSDRFSGSRSATSASLAISGLQSEDEADYYCATWDDSVNGWVFGGGTKLTVLGSRGGGGSGGGGSGGGGSLEMAQVQLVQSGAEVKKPGDSVKVSCKPSGYNFLNYGINWVRQAPGQGLEWMGWISTYTGNTNYAQKLQGRVTFTTDTSTSTAYMEMRSLRSDDTAVYYCARDLYYYEGVDYWGQGTLVTVSS
notes: as for B1
B16: ET200-041 scFv (scFv)
scFv: NFMLTQPHSVSGSPGKTVTISCTGSSGSIADNFVQWYQQRPGGVPTTVIFNDDERPSGVPDRFSGSIDTSSNSASLTISGLKTEDEADYYCQSYDNNNRGVFGGGTKLTVLGSRGGGGSGGGGSGGGGSLEMAQVQLVQSGAEVKKPGSSVKVSCKASGGTFSSYAISWVRQAPGQGLEWMGWMNPNSGNTGYAQKFQGRVTMTRNTSISTAYMELSNLRSEDTAVYYCARYYSYGYDWGQGTLVTVSS
notes: as for B1
B17: ET200-003 scFv (scFv)
scFv: QSVLTQPPSVSVSPGQTASISCSGNKLGTKYVYWYQKRPGQSPVLVMYEDNQRPSGIPERFSGSNSGNTATLTIRGTQTVDEADYYCQAWDSDTFVVFGGGTKVTVLGSRGGGGSGGGGSGGGGSLEMAEVQLVETGGGVVQPGRSLRLSCAASGFTFSSYGMHWVRQAPGKGLEWVAVISHDGSNKYYADSVKGRFTISRDNSKDTLYLQMNSLRGEDTAVYYCARSNQWSGYFSFDYWGQGTLVTVSS
notes: as for B1

This experiment has as its target T1, human Fc Receptor-Like 5 (FcRL5), full …. In words: scFv phage: ELISA on His-tag FcRL5, flow cytometry on FcRL5-overexpressing 3T3 and Raji cells.
On to B1, for which the binding result is “binds”. With B2, the binding result is “binds”. As for B3, the binding result is “binds”. B4: the binding result was “binds”.

In the case of B5, the binding result is “binds”. On to B6, for which the binding result is given as “binds”.

Regarding B7, the binding result was “binds”. The value for B8 was “binds”. Consider B9, for which the binding result was “binds”.

As to B10, the binding result is on record as “binds”.

For the molecule B11, the binding result is given as “binds”. B12: the binding result is listed as “binds”. The value for B13 was “binds”. Under B14 stands “binds”. The value for B15 was “binds”.

For the molecule B16, the binding result is “binds”. In the case of B17, the binding result is “binds”.

Values taken from US20230020729A1 (Memorial Sloan Kettering, published 2023).
